Molecular target: pre-fusion RSV F DS-Cav1 (human respiratory syncytial virus (hRSV A strain))
Experiment: SEC; UPLC on a BEH200 size exclusion chromatography column (Waters Acquity UPLC); final purified protein after thrombin cleavage, 10 mM potassium phosphate pH 7.2

For “pre-fusion RSV F DS-Cav1 (natural protein)”, the stoichiometry N was 3.

— PMC5651886
